The results in this text go back to the DeepSol protein solubility set.

A short description of this data set: soluble on expression in E. coli; label from the status in PepcDB or PDB records.
In the case of “MAHHHHHHMYYIYIYIYENGSAYQKDNDNTVENKLLENLYKLELIDNYDTPLSRVSRTDKGVSARINGINLRLNIKYENVPIFEIEKKYVKELKKKLKNIHIHDIKHVSNTFDARLNCIQRTYVYFFINKNYNIEKMKKAAKLFIGEHDFSNCCKKGKNVTSNRRTVLKFDIRNIDKHFYYFKIKGISFLYNQIRHMVAILFLVGKGLLDNNDVNNILNNTSTKRKNYHIADENGLLLYSFKFNDYKYNNHVNNKIFLNVMNKYIQSTMLLVSLCHPLKLENKNEDFFENLDDEDIKNDVIHNNMIKEINKK”, the “soluble on expression in E. coli” value is “not soluble”.
Take “MGHHHHHHENLYFQSHLYFQSHMYHDRRRTGFRQYETYMKQKQSADWQLDELLEELEALETQLNSSNGGDQLLLGVSGIPASSSRENVKSISTLPPPPPALSYHQTPQQPQLLHHHNNHLGYQNGIHQITSINSAASSCSSPDGDSAFGDSSSTESSNNRCRNSAFSSNDSCRDSLNTPSPTQVSPRNGELNAEEAKAQKIRQALEKMKEAKVTKIFVKFFVEDGEALQLLIDERWTVADTLKQLAEKNHIALMEDHCIVEEYPELYIKRVYEDHEKVVENIQMWVQDSPNKLYFMRRPDKYAFISRPELYLLTPKTSDHMEIPSGDQWTIDVKQKFVSEYFHREPVVPPEMEGFLYLKSDGRKSWKKHYFVLRPSGLYYAPKSKKPTTKDLTCLMNLHSNQVYTGIGWEKKYKSPTPWCISIKLTALQMKRSQFIKYICAEDEMTFKKWLVALRIAKNGAELLENYERACQIRRETLGPASSMSAASSSTAISEVPHSLSHHQRTPSVASSIQLSSHMMNNPTHPLSVNVRNQSPASFSVNSCQQSHPSRTSAKLEIQYDEQPTGTIKRAPLDVLRRVSRASTSSPTIPQEESDSDEEFPAPPPVASVMRMPPPVTPPKPCTPLTSKKAPPPPPKRSDTTKLQSASPMAPAKNDLEAALARRREKMATMEC”: the “soluble on expression in E. coli” value is reported as “not soluble”.
In the case of “MDERPVLFFDSGIGGLTVLREVRSLIPEKQFIYVADDVGFPYGNWEENVLKNRILKIFTNLLTVYNPALCVIACNTVSTLMIADLRERFPHILFVGTVPAIKLAAEQTKSGFISVLATPGTVKRTYTHELINSFAGQCHVQLVGSEKLAGFAENYLRGQSVDLEELRNEILPCFVKKNGKHTDIIVLACTHYPFLLHFFREQALWHVQWIDPSKAIAKRTRSLLPQRIHHQTVKKYEDFALFTSQNITSSTKRLLKEFSLNITKGVDFKV” it was “not soluble”.
To “MLALFYNKKLFEQAGLTKPPETWDELLEYAKIITEKTGKPGLAIYLGGFNRYVPVAVSNGAPKPWFEKPEDASWFDNPVVRETLTWYINLYRKGKVEREKKGLPPYVVAPEDVGAGWLGDAFGQQKVAMVISGNWMIPFLADQFPNFKYGEDWDIAPLPAGKNGRVTMVYTVILGINSKTKHPKEAWKFVEFILGPRGQKELVVKAGQTLPSMKGFENDP” belongs “not soluble”; to “MDYQTFEKVNKFINVKAYIFFLTQELKQQYKLSLKELLILAYFYYKNEHSISLKEIIGDILYKQSDVVKNIKSLSKKGFINKSRNEADERRIFVSVTPIQRKKIACVINELDKIIKGFNKERDYIKYQWAPKYSKEFFILFMNIMYSKDFLKYRFNLTFLDLSILYVISSRKNEILNLKDLFESIRFMYPQIVRSVNRLNNKGMLIKERSLADERIVLIKINKIQYNTIKSIFTDTSKILKPRKFFF”, “not soluble”; to “MITRDFFLFLSKSGFLNKMARNWGSRVAAGKIIGGNDFNSSIPTIRQLNSQGLSVTVDHLGEFVNSAEVARERTEECIQTIATIADQELNSHVSLKMTSLGLDIDMDLVYENMTKILQTAEKHKIMVTIDMEDEVRCQKTLDIFKDFRKKYEHVSTVLQAYLYRTEKDIDDLDSLNPFLRLVKGAYKESEKVAFPEKSDVDENYKKIIRKQLLNGHYTAIATHDDKMIDFTKQLAKEHGIANDKFEFQMLYGMRSQTQLSLVKEGYNMRVYLPYGEDWYGYFMRRLAERPSNIAFAFKGMTKKLEHHHHHH”, “soluble”.
To “MKLKHKRDDKMRFDIKKVLELAEKDFETAWRETRALIKDKHIDNKYPRLKPVYGKPHPVMETIERLRQAYLRMGFEEMINPVIVDEMEIYKQFGPEAMAVLDRCFYLAGLPRPDVGLGNEKVEIIKNLGIDIDEEKKERLREVLHLYKKGAIDGDDLVFEIAKALNVSNEMGLKVLETAFPEFKDLKPESTTLTLRSHMTSGWFITLSSLIKKRKLPLKLFSIDRCFRREQREDRSHLMSYHSASCVVVGEDVSVDDGKVVAEGLLAQFGFTKFKFKPDEKKSKYYTPETQTEVYAYHPKLGEWIEVATFGVYSPIALAKYNIDVPVMNLGLGVERLAMIIYGYEDVRAMVYPQFYEYRLSDRDIAGMIRVDKVPILDEFYNFANELIDICIANKDKESPCSVEVKREFNFNGERRVIKVEIFENEPNKKLLGPSVLNEVYVYDGNIYGIPPTFEGVKEQYIPILKKAKEEGVSTNIRYIDGIIYKLVAKIEEALVSNVDEFKFRVPIVRSLSDINLKIDELALKQIMGENKVIDVRGPVFLNAKVEIK” belongs “soluble”.
With “MSLAKITGGYTATGSAADTMNALAVDDNQSSSGYDRDSFGFRTTDVDGNGCDVRDDVLARDLTDITYKYAGSCVVESGTLADPYTAQTIHFVRGRATSAKVQIDHVVALENAWQSGARDWSTAKRHEFGNDPYNLMAVDGPANQEKGSASAAYWMPTNADYRCDYVARQIGVKDKYQLTVTSQEKDAMLAVLHTCPGQAVPADEEGHHHHHH”, the “soluble on expression in E. coli” value is recorded as “soluble”.
In the case of “MSLKEKSVINAVKAEILVEKLVDKLMKEQELNPSEDILRAYYEFYKREFYRPSSVKLLGIYVKSKKEAERISQILKQGEVPSTEDVKVSKPLWYSIPTLPKYIRRNFRTLSVGEVSKPIKINDGYLVFKILDKKPAGFIPFERAKSLVKKMYLKEKRKEVFKKWLSEVLKKYQVRSTGKTCNTFISRFFFRKVNRQGEGHHHHHH” it was “not soluble”.
Turning to “MLAFGPVPSRRLGRSLGVNNIPAKICSYACVYCQIGKTLKMEVERRKFYEPERIYNDVSAKVKSGERIDYITFVPDGEPTLDINLGKEAEMLRDFGIKLAILTNSSLIWREDVREDLMNFDLVSLKLDAVSDDIWRKVNRPHKSLSLEKILEGMLDFRKEFKGTIITETMLINIDYGEELEKIATFLKELKPDKAYIAIPTRPPAESWVKPASEVIINKAYQLFSEALGEERVEYLIGYEGNAFAFTGNVEEDLLSITAVHPMREEAVRELLRKAGASWDVVEKMIKEGKLIELEYNGKKFYMRKLGSR”, the “soluble on expression in E. coli” value is “not soluble”.
In the case of “MMPKVYGSLVDNETRCTHYHTFLDVIAIKFKCCNKYYPCYQCHEEHETHPIKRWSEQEFDEKAIMCGVCKHEMSIQDYMMTELCPKCQAHFNSRCKFHYHLYFELLEHHHHHH” it was “not soluble”; in that of “HKCDITLQEIIKDLNSLTEQKTLCTELTVTDIFAASKNTTEKETFCRAATVLRQFYSHHEKDTRCLGATAQQFHRHKQLIRDLKRLDRNLWGLAGLNSCPVKEANQSTLENFLERLKTIMREKYSKCSS”, “soluble”.
In the case of “EAVREMVCEDDLSQTFITDGSLPACDITLEQAQNLARHVWGQGFAPPSFTDEFHVVRQQPLGAEGKHKKVWLQKDGCEFEAMFWRCSEDIPEYIRTVYRPVANEWRNNLELQLYIDYWEAA” it was “not soluble”; in that of “MAHHHHHHMGTLEAQTQGPGSMLEKKTFKSSHTNAFHDFQARVYVADTDFSGVVYHARYLEFFERGRSEFLRDTGFNNTLLASGVEGEKLFFVVRHMEINFSRPAQIDNLLTIKTRISRLQGARFFMEQYILHGESMLVTAKVEIALINEEGKPRRLPKELFSTIVV”, “soluble”; in that of “MGSDKIHHHHHHMTKEASRPALDLARQAYEAFKARGLNLNMQRGQPADADFDLSNGLLTVLGAEDVRMDGLDLRNYPGGVAGLPSARALFAGYLDVKAENVLVWNNSSLELQGLVLTFALLHGVRGSTGPWLSQTPKMIVTVPGYDRHFLLLQTLGFELLTVDMQSDGPDVDAVERLAGTDPSVKGILFVPTYSNPGGETISLEKARRLAGLQAAAPDFTIFADDAYRVHHLVEEDRAEPVNFVVLARDAGYPDRAFVFASTSKITFAGAGLGFVASSEDNIRWLSKYLGAQSIGPNKVEQARHVKFLTEYPGGLEGLMRDHAAIIAPKFRAVDEVLRAELGEGGEYATWTLPKGGYFISLDTAEPVADRVVKLAEAAGVSLTPAGATYPAGQDPHNRNLRLAPTRPPVEEVRTAMQVVAACIRLATEEYRAGH”, “not soluble”.
Take “MGHHHHHHSHGTRSKLSRHGSGADSDYENTQSGDPLLGLEGKRFLELGKEEDFHPELESLDGDLDPGLPSTEDVILKTEQVTKNIQELLRAAQEFKHDSFVPCSEKIHLAVTEMASLFPKRPALEPVRSSLRLLNASAYRLQSECRKTVPPEPGAPVDFQLLTQQVIQCAYDIAKAAKQLVTITTREKKQ”: the “soluble on expression in E. coli” value is given as “soluble”.
With “MGSDKIHHHHHHMQLPISQYNELLQKKLEKLTALLHPFNAPDIQVFDSPTSHYRMRAEFRIWHEQDDFYHIMFDQATLQRYRVDEFPIASMLINRMMQTLLPLLKQQEVLHKKLFQIDYLSTLSNKIIVSLLYHKTLTEEWESAAKNLKDLLEKQDFDVQIIGRASKQKICFEQDYVDEVLPVNGRNYVYRQVENSFTQPNATVNCKMLEWAIDCTQNSEGDLLELYCGNGNFSIALAQNFRKVLATEIAKPSVAAAQFNIAENKVDNLQIIRMSAEEFTQAMNGVRAFNRLKGIDLKSYECNTIFVDPPRAGLDPDTVKLVQNYDRILYISCNPHTLCDNLVELSKTHRIEKAALFDQFPYTDHMESGLWLIRK”, the “soluble on expression in E. coli” value is reported as “not soluble”.
In the case of “MGNLICTKNGGEPEIMVAAHMDEIGFAVKYIDDKGFIRIAPIGGWFSQIALAQRVVLYGKKKVYGVIGCKPPHLMKDEERKKGIEIKDMFVDIGASSKEEVLEMGINVGTPVALDREIVELANGRITGKAFDNRVGVAVMIEAVRRAKADITIHAVATVQEEVGLKGARTSAFAIEPTAAIAVDTCVAADFPGSESAHMDVKLGKGAAITVIDASGRGLIASPKVLRWLTETAEKYGIPYQLEVAEGGTTDATAIHLTKAGIPAGVVSVPARYIHSPVEVVDLKDVESAVEIVARAIENAKNYF” it was “soluble”.
To “MSLLSSEGPIFYVQERIGQNYKPFNCIKFRTMVSNADEVLMQMMETSPQLRQEFESSFKLKKDPRITKIGQFLRITSLDEFPQFWNVLKGDMSVVGPRPLVAEELPKYGDHIEQVLTIRPGITGLWQVSGRNDIPYPRRVQIDLHYVKSRTLWLDLWIILKTIDVVIMPKNNGAYEGHHHHHH” belongs “soluble”.
To “AHHHHHHGSKWEEWKPFYERIVKEMGYSIEEDRRAAELLRDILMENDNYIIKEELNSIIMQKVYVFGAGPNLEEALKKGDFKDGTKIAADGATSALLEYGITPDVVVTDLDGRIRDLLEASRKAVMVVHAHGDNMDKLPLVVEFPLVLGTCQTEPLDIVYNFGGFTDGDRAAFLAEEMGAKEIVLVGFDFSGIVGKWSKPWLRDHTPAWESKMKKLKFARELLEWLKNNGRAKIIEFSI” belongs “not soluble”.
In the case of “MGSDKIHHHHHHMNTQPVIGISGCLTGSAVRFDGGHKRMGFVMDELAQWVAFKPVCPEMAIGLPVPRPALRLVQTPVGEIRMRFSHAPHEDVTEKMADFASAHLATLGGLSGFIVCAKSPSCGMERVRLYDEKGNRGRKEGVGLFTGALMARYPWLPVEEDGRLHDPLLRENFVERVFALHELNALRARGLTRHGLLAFHSRYKLQLLAHHQAGYREIGPFVASLHEWEDLEAFFEVYREKLMAILKQPASRKNHTNVLMHIQGYFRDQLNSRQRGELREVILNYRAGLLPILAPLTLLKHYLAEYPDRYLQAQNYFDPYPQDLALRLTVN”, the “soluble on expression in E. coli” value is “not soluble”.
